Data: patent WO2021160116A1 (dated 2021)

Molecular target: T1, human FcRn-β2M complex (human FcRn extracellular region with His-tagged human β2M) (human, UniProt P55899 24-297; P61769 21-119, randomly biotinylated in the ELISA (biotin-hFcRn))
T1 construct: Purified by Ni-Sepharose and Superdex200; Used biotinylated in the ELISA and as analyte in Biacore; also called FcRn antigen; hFcRn; not shown: His tag
Assay: ELISA, biotin-hFcRn on NeutrAvidin plate, pH 6.0

EC50: 0.9 µg/mL
B1: Argx-113 (other)
chain: DKTHTCPPCPAPELLGGPSVFLFPPKPKDTLYITREPEVTCVVVDVSHEDPEVKFNWYVDGVEVHNAKTKPREEQYNSTYRVVSVLTVLHQDWLNGKEYKCKVSNKALPAPIEKTISKAKGQPREPQVYTLPPSRDELTKNQVSLTCLVKGFYPSDIAVEWESNGQPENNYKTTPPVLDSDGSFFLYSKLTVDKSRWQQGNVFSCSVMHEALKFHYTQKSLSLSPGK
